Patent US20110201552A1 (Janssen / Centocor, published 2011)

T1: soluble GFRα-1 IgG1-Fc fusion protein (GFRα-1 amino acids 27 to 427 fused to human IgG1-Fc, from CHO cells) (human, UniProt P56159 27-427)
T1 construct: range 27-427; The 17 amino acid CD33 signal peptide of the vector is left out; also called GFRα1-Fc; not shown: 243 amino acid COOH-terminal human IgG1-Fc fusion domain of vector Signal pIg plus (R&D Systems); Its exact limits and a
T1 sequence (looked up): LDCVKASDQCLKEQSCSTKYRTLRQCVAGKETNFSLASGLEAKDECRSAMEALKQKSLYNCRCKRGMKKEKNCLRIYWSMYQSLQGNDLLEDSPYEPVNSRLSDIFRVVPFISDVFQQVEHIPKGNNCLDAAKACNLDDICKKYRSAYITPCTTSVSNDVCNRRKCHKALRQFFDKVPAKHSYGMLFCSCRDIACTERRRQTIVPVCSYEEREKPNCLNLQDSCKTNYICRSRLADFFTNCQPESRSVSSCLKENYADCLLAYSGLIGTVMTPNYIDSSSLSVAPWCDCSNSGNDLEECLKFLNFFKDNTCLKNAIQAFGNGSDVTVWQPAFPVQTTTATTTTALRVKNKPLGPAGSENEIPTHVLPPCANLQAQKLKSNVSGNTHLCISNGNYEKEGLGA

T2: soluble GFRα-2 IgG1-Fc fusion protein (GFRα-2 amino acids 20 to 431 fused to human IgG1-Fc, from CHO cells) (human, UniProt O00451 20-431)
T2 construct: range 20-431; The 17 amino acid CD33 signal peptide of the vector is left out; also called GFRα2-Fc; not shown: 243 amino acid COOH-terminal human IgG1-Fc fusion domain of vector Signal pIg plus (R&D Systems); Its exact limits and a
T2 sequence (looked up): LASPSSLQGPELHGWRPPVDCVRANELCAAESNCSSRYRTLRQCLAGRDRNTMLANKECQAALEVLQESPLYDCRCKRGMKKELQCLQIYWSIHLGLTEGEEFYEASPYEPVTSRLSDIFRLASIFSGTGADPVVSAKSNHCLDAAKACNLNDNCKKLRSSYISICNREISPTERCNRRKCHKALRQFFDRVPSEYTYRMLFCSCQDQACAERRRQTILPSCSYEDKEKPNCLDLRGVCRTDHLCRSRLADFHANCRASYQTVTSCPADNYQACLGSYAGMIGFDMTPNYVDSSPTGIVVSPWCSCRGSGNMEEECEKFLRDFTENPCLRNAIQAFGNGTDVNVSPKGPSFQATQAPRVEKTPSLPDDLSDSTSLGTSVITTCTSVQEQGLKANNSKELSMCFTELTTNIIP

B1: soluble GFRα-3 IgG1-Fc fusion protein (GFRα-3 amino acids 28 to 371 fused to human IgG1-Fc, from CHO cells) (Fc fusion, UniProt O60609 28-371, looked up, not shown: a dimerising Fc or GST)
chain: LAAGDPLPTESRLMNSCLQARRKCQADPTCSAAYHHLDSCTSSISTPLPSEEPSVPADCLEAAQQLRNSSLIGCMCHRRMKNQVACLDIYWTVHRARSLGNYELDVSPYEDTVTSKPWKMNLSKLNMLKPDSDLCLKFAMLCTLNDKCDRLRKAYGEACSGPHCQRHVCLRQLLTFFEKAAEPHAQGLLLCPCAPNDRGCGERRRNTIAPNCALPPVAPNCLELRRLCFSDPLCRSRLVDFQTHCHPMDILGTCATEQSRCLRAYLGLIGTAMTPNFVSNVNTSVALSCTCRGSGNLQEECEMLEGFFSHNPCLTEAIAAKMRFHSQLFSQDWPHPTFAVMAHQ
B2: recombinant enovin (6xHis-tagged mature human Enovin expressed from plasmid hEVNmat/pRSETB in E. coli BL21(DE3), refolded) (ligand)
chain: MRGSHHHHHHGMASMTGGQQMGRDLYDDDDKDPAGGPGSRARAAGARGCRLRSQLVPVRALGLGHRSDELVRFRFCSGSCRRARSPHDLSLASLLGAGALRPPPGSRPVSQPCCRPTRYEAVSFMDVNSTWRTVDRLSATACGCLG
notes: The construct codes for a 146 amino acid protein: 33 leader and tag residues plus 113 residues of mature enovin; also called immobilized enovin

Legend:
[1] = target: recombinant enovin (6xHis-tagged mature human Enovin expressed from plasmid hEVNmat/pRSETB in E. coli BL21(DE3), refolded) (human); assay: SPR (BIAcore 3000, 25 C), enovin immobilized, soluble GFRα3-Fc in flow at three concentrations
[2] = target: recombinant enovin (6xHis-tagged mature human Enovin expressed from plasmid hEVNmat/pRSETB in E. coli BL21(DE3), refolded) (human); assay: SPR (BIAcore 3000, 25 C), enovin immobilized, soluble GFRα3-Fc in flow; KD calculated as kd/ka
[3] = target: T1, soluble GFRα-1 IgG1-Fc fusion protein …; assay: SPR (BIAcore 3000), enovin immobilized, soluble GFRα-Fc in flow
Method: (§1) Surface plasmon resonance (SPR) experiments were performed at 25° C. using a BIAcore 3000 instrument. Analyses were performed with enovin and NGF as immobilized ligands. The carboxylated matrix of a Fl sensor chip was first activated with a 1:1 mixture of 400 mM N-ethyl-N-(dimethylaminopropyl)-carbodiimide and 100 mM N-hydroxy-succinimide for 10 min. Than, recombinant enovin and NGF were applied onto the activated surface in […] acetate buffer, pH 4.5 at a flow rate of 5 μl/min. Unoccupied reactive groups were inactivated with 1 M ethanolamine hydrochloride. For binding experiments, soluble GFRα1-3-Fc were superfused at concentrations of 10-100 nM in HEPES buffered saline (150 mM NaCl, 3.5 mM EDTA, 0.05% P-20, 10 mM HEPES, pH 7.4) at a flow rate of 10 μl/min. The association was monitored for 3 min and dissociation for 1 min, followed by regeneration with 5 mM NaOH. Dissociation was initiated by superfusion with HEPES buffered saline. A BIAcore evaluation software, 3.0 was used to calculate the association rate (kₐ), dissociation rate (kd) and the equilibrium dissociation constants (KD calculated as kd/Kₐ).

[4] = target: T2, soluble GFRα-2 IgG1-Fc fusion protein …; assay: as above
Method: as §1

koff [1] [s⁻¹]	kon [1] [M⁻¹ s⁻¹]	Kd [2] [nM]	binding result [3]	binding result [4]	Binder
0.000508	165000	3.1	–	–	B1
–	–	–	no binding (tested: 10-100 nM)	no binding (tested: 10-100 nM)	B2
